From IntAct's records for PubMed 23565059

B1: Homeodomain-interacting protein kinase 2 (Mus musculus), Q9QZR5 (parent)
chain: MAPVYEGMASHVQVFSPHTLQSSAFCSVKKLKVEPSSNWDMTGYGSHSKVYSQSKNIPPSQPASTTVSTSLPIPNPSLPYEQTIIFPGSTGHIVVTSASSTSVTGQVLGGPHNLMRRSTVSLLDTYQKCGLKRKSEEIENTSSVQIIEEHPPMIQNNASGATVATATTSTATSKNSGSNSEGDYQLVQHEVLCSMTNTYEVLEFLGRGTFGQVVKCWKRGTNEIVAIKILKNHPSYARQGQIEVSILARLSTESADDYNFVRAYECFQHKNHTCLVFEMLEQNLYDFLKQNKFSPLPLKYIRPVLQQVATALMKLKSLGLIHADLKPENIMLVDPSRQPYRVKVIDFGSASHVSKAVCSTYLQSRYYRAPEIILGLPFCEAIDMWSLGCVIAELFLGWPLYPGASEYDQIRYISQTQGLPAEYLLSAGTKTTRFFNRDTDSPYPLWRLKTPDDHEAETGIKSKEARKYIFNCLDDMAQVNMTTDLEGSDMLVEKADRREFIDLLKKMLTIDADKRVTPIETLNHPFVTMTHLLDFPHSAHVKSCFQNMEICKRRVNMYDTVNQSKTPFITHVAPSTSTNLTMTFNNQLTTVHNQAPTTSSATLSLANPEVSILNYQSALYQPSAASMAAVAPRSMPLQTGTAQICARPDPFQQALIVCPPGFQGLQASPSKHAGYSVRMENAVPIVTQAPGAQPLQIQPGLLAQQAWPGGAQQILLPPAWQQLTGVATHTSVQHAAVIPETMAGTQQLADWRNTHAHGSHYNPIMQQPALLTGHVTLPAAQPLNVGVAHVMRQQPTSTTSSRKSKQHQSSVRNVSTCEVTSSQAISSPQRSKRVKENTPPRCAMVHSSPACSTSVTCGWGDVASSTTRERQRQTIVIPDTPSPTVSVITISSDTDEEEEQKHAPTSTVSKQRKNVISCVTVHDSPYSDSSSNTSPYSVQQRTGHNGTNTLDTKGGLENHCTGNPRTIIVPPLKTQASEVLVECDSLGPAISASHHSSSFKSKSSSTVTSTSGHSSGSSSGAIAYRQQRPGPHFQQQQPLNLSQAQQHMAADRTGSHRRQQAYITPTMAQAPYTFPHNSPSHGTVHPHLAAAAHLPTQPHLYTYTAPTALGSTGTVAHLVASQGSARHTVQHTAYPASIVHQVPVSMGPRVLPSPTIHPSQYPAQFAHQTYISASPASTVYTGYPLSPAKVNQYPYI

Variants of: B1
Conditions: with mef2c_mouse Mef2c

effect of a mutation on the interaction | Variant
decreasing interaction strength | K228A
